Results on one molecule are retold here after US20140179896A1 (published 2014).

In assay [1] the target is T1, human vascular endothelial growth factor receptor-2 Fc chimera (KDR-Fc) (human, UniProt P35968 20-764).
T1 construct: range 1-764; also called human VEGFR-2; hKDR; not shown: human IgG1 Fc
In words: binding to 1 nM KDR-Fc, % of input; radioactive equilibrium binding (assay not given). The method, boiled down: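 ³⁵S-Met-labeled fibronectin-scaffold binders, made by reticulocyte lysate translation (30° C, 1 h) and Flag-purified, were held at 0.2 or 0.5 nM and incubated with 0–200 nM VEGF-R2-Fc for 1 h at 30° C in buffer B. Complexes were captured on Protein A magnetic beads, washed, KOH-eluted and counted.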

The target in assay [2] is T1, human vascular endothelial growth …. In words: radioactive equilibrium binding (assay not given).
Assay [3] concerns the target T2, mouse vascular endothelial growth factor receptor-2 Fc chimera (Flk-1-Fc) (mouse, UniProt P35918 20-762).
T2 construct: Purchased from R&D Systems; also called mouse VEGF-R2; not shown: Fc part of the purchased chimera
In words: radioactive equilibrium binding assay with VEGFR-2-Fc chimeras (FIG. 4). On the procedure: To prepare ³⁵S-labeled binding proteins for analysis, mRNA was prepared as described above for RNA-protein fusion production but the linker ligation step was omitted. The mRNA was expressed using rabbit reticulocyte lysate translation kit (Ambion) in the presence of ³⁵S-labeled Met at 30° C. for 1 hour. Expressed protein was purified on M2-agarose Flag beads (Sigma) as described above. This procedure produced the encoded protein without the nucleic acid tail. […] of the reaction mixture and elution were dried onto a LumaPlate-96 (Packard) and the amount of ³⁵S on the plate was measured using a TopCount NXT instrument (Packard). The amount of fibronectin-based scaffold protein bound to the target was estimated as a percent of radioactivity eluted from Protein A magnetic beads compare to radioactivity in the reaction mixture. Nonspecific binding of fibronectin-based scaffold proteins to the beads was determined by measuring binding in the absence of KDR-Fc and represented less than 1-2% of the input. […] Data was analyzed using the GraphPad Prizm software (GraphPad Software, Inc, San Diego, Calif.), fitted using a one site, non-linear binding equation.

T1 sequence (P35968 20-764 limits assumed, change not shown, form in doubt): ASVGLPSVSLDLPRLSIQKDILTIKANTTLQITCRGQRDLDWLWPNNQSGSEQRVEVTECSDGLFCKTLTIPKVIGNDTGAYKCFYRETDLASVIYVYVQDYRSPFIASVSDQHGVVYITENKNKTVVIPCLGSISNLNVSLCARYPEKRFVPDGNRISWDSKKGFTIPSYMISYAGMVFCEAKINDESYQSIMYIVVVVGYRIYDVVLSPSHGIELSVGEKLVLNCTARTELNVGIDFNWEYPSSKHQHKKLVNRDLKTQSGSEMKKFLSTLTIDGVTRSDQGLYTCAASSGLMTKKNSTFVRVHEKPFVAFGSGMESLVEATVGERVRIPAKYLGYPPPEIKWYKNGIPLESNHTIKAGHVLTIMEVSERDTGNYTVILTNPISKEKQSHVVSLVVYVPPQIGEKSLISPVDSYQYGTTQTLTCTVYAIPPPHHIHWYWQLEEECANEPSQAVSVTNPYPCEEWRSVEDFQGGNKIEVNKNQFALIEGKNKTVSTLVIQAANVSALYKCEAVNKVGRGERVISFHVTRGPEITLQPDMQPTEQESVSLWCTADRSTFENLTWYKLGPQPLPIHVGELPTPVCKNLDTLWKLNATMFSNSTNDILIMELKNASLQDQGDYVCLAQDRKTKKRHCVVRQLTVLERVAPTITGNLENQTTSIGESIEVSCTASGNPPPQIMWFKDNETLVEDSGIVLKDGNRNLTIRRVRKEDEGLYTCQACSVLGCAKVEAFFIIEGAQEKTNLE
T2 sequence (P35918 20-762, change not shown): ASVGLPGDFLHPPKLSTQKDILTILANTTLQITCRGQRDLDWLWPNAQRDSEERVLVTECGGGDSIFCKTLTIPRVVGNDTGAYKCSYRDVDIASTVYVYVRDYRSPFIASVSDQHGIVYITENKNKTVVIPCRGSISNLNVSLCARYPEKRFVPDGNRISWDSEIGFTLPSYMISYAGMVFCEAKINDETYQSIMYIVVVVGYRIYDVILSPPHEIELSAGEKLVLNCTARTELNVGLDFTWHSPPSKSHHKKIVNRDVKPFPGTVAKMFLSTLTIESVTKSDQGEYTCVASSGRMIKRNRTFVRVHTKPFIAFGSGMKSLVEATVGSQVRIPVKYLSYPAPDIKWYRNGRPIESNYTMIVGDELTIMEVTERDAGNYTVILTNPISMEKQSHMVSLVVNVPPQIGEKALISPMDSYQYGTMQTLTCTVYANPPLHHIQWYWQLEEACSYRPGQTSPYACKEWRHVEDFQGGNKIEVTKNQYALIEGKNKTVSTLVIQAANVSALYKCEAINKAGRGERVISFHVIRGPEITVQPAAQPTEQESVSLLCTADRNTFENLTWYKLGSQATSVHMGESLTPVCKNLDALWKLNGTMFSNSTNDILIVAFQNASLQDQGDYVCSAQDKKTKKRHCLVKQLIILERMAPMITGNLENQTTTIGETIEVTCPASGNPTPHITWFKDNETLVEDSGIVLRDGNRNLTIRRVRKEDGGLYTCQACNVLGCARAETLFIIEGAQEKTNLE

B1: VR28 (designed binder)
chain: VSDVPRDLEVVAATPTSLLISWRHPHFPTRYYRITYGETGGNSPVQEFTVPLQPPTATISGLKPGVDYTITGYAVTVAQNDHELITPISINYRT
notes: 10Fn3 clone with WT N-terminus; tag not included; also called VR28 (I69T); VR28 clone
With B1, in assay [1], the “Binding to 1 nM KDR, %” value was 3%. Further, the Kd in assay [2] was found to be 11 nM. In assay [3], the binding result is recorded as “no binding”.
